Assays:
Conditions in all cases: both partners purified
[1] = biological target: T1, uniformly ^15N‐labeled Aβ40 (uniformly 15N-labeled); assay: NMR titration; 2D 1H–15N HSQC (700 MHz); 15N-labeled Aβ40 40 µM, CuCl2 20 µM, APP-C31 200 µM; 20 mM HEPES, pH 7.4; 10 °C
T1 construct: Amyloid-beta 40, cut from amyloid precursor protein (APP); numbers count on: the Aβ peptide (Asp1 to Val40); also called ^15N‐labeled Aβ40 monomer; source: bought: rPeptide Inc

[2] = biological target: T2, amyloid‐β40 (Aβ40); assay: ITC; APP-C31 600 µM in the syringe, Aβ40 30 µM in the cell; 20 mM HEPES, pH 7.4; 10 °C; one set of sites model
T2 construct: Amyloid-beta 40, cut from amyloid precursor protein (APP) by beta- and gamma-secretases; numbers count on: the Aβ peptide (Asp1 to Val40); Unlabelled peptide; Metal-treated samples (CuCl2, ZnCl2) are told apart by the assay; also called metal-free Aβ40; Cu(II)–Aβ40 and Zn(II)–Aβ40 when treated with CuCl2 or ZnCl2; source: bought: Peptide Institute (HPLC-purified) or Anaspec
T2 sequence (peptide, as listed by the source): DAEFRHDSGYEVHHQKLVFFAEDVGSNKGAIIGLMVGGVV

[3] = biological target: T2, amyloid‐β40 (Aβ40); assay: native MS; ESI–MS; APP-C31 100 µM incubated with Aβ40 100 µM, 20 mM ammonium acetate, pH 7.3, 37 °C, 2 h, no agitation; diluted tenfold before injection; no metal

T1 sequence (peptide, as listed by the source): as above

binding result [1]: binds
Kd [2]: 150 ± 11.4 µM
dH [2]: -1.5 ± 0.3 kcal/mol
stoichiometry N [3]: 1
B1: APP‐C31 (APP_(665–695)) (peptide)
peptide: AAVTPEERHLSKMQQNGYENPTYKFFEQMQN
notes: C-terminal 31 residues of amyloid precursor protein (APP), produced by caspase cleavage; residues 665-695; source: bought: AnaSpec

From article PMC10811509, “APP‐C31: An Intracellular Promoter of Both Metal‐Free and Metal‐Bound Amyloid‐β40 Aggregation and Toxicity in Alzheimer's Disease” (Advanced Science, 2023)
